pKd: −log10 of the molar value. Where two headings read alike, the source gives them in different places.

Consider four substances from doi:10.1101/2022.11.10.512828.

Assay [1] addresses unmodified lumazine synthase from Saccharomyces cerevisiae (LS^wt) (Saccharomyces cerevisiae) (UniProt P50861). The experiment in a line: AUC.
The target is the same in assay [2]. Description: SEC.
Assay [3] has as its target LS-αβICD, heteropentamer of two LS-αICD and three LS-βICD chains (Saccharomyces cerevisiae | rat) (UniProt P50861). Description: ITC.
For assay [4], the target named is LS-αICD chain of the co-expression construct (pETDuet1, first cloning site) (Saccharomyces cerevisiae | rat) (UniProt P50861). The experiment in a line: densitometry of Coomassie-stained SDS-PAGE bands of the purified complex. Conditions: scale: βICD chains to 2 αICD chains in the pentamer.
Assay [5] addresses LS-αβICD, heteropentamer of two LS-αICD and three LS-βICD chains (Saccharomyces cerevisiae | rat) (UniProt P50861). The experiment in a line: SEC.
For assay [6] the target is unchanged. The experiment in a line: SEC. This is another data set of the same source. On the technique in general: Size exclusion chromatography separates by hydrodynamic size, large species first.
The target is the same in assay [7]. The experiment in a line: SEC. The source holds these as a separate data set.

As to “unmodified lumazine synthase from Saccharomyces cerevisiae (LS^wt) (from UniProt P50861 2-169) (enzyme)”, the stoichiometry N in assay [1] and in assay [2] was 5 in each case.

Take “gephyrin E-domain (GephE) dimer (domain or fragment)”: in assay [3], the pKd (commonly the negative decadic logarithm of the Kd, by convention in mol/L) is 6.17 and the stoichiometry N – broadly, a count of units in the complex or per binding partner – turned out to be 0.41.

In assay [4], “LS-βICD chain of the co-expression construct (pETDuet1, second cloning site) (from UniProt P50861 1-138; P50861 139-169)” gave a stoichiometry N of 3.

“full-length rat gephyrin splice variant rC4 (natural protein)”: in assay [5], the amount of gephyrin bound turned out to be 4 nmol. In assay [6], this substance returned an amount of gephyrin bound of 3 nmol, a percent of gephyrin bound of 75%, a stoichiometry N (gephyrin trimer per LS pentamer) of 1 and a stoichiometry N (gephyrin trimers to 3 LS pentamers) of 3. The substance further yielded a stoichiometry N (gephyrin trimers to 3 LS pentamers) in assay [7] of 4. In assay [3], the pKd is 6.31 and the stoichiometry N was determined as 0.57.
